Measurements: patent US10899824B2 (Polichem S.A., priority 2016, dated 2021)

Assays:
HSV-1 [1] = test: Syncytia formation evaluation (qualitative neutralization assay); format: cell-based, HSV-1 (HF strain)
Method: (§1) Purified Fabs (Ex2(G2), Ex2B(G2), Ex2C(G2), Ex2H(G2) and Ex2I (G2) were pre-incubated (10 μg/mL) with a standard amount of HSV-1 or HSV-2 isolates. Appropriate experimental controls were also included. The different “infection-mix” was used to infect Vero E6 cells (adsorption 2 hours before change of medium).
(§2) After twenty hours, the cell monolayers were Fixed and Permeabilized with crystal violet containing solution allowing first a qualitative evaluation of Fabs biological activities against both HSV-1 and HSV-2 isolates (procedure described in the Materials and Methods section). The reduction of syncytia formation was assessed by bright field phase contrast optical microscopy. As already stated, this assay allowed a first evaluation of Fab potencies.
(§3) The qualitative assays (described in the Materials and Methods section) were performed on IgG1 format of selected anti-HSV-1 and 2 Fabs (FIG. 11).
(§4) In order to evaluate the potency of Fab Ex2, a qualitative assay using different dilutions was performed. Three different concentrations of Ex2 (10 μg/ml, 5 μg/ml and 2.5 μg/ml) were tested against HSV-1 and 2 through the syncytia formation assay.
(§5) Syncytia Formation Evaluation Through Bright Field Phase Contrast Optical Microscope Protocol: […]
(§6) The reduction of syncytia formation was assessed by bright field phase contrast optical microscope. […]

HSV-2 [2] = test: as above; format: cell-based, HSV-2 (MS strain)
Method: as §1, §2, §3, §4, §5, §6

HSV-1 [3] = test: Quantitative neutralizing activity through indirect immunofluorescence (IIF), InCellAnalyzer count; format: cell-based, HSV-1 (HF strain); settings: IgG1 Fab; Vero E6 cells
Method: (§7) The neutralizing activity of Fabs Ex2, Ex2B, Ex2C, Ex2H and Ex2I was evaluated using the InCellAnalyzer automated count system in order to calculate the IC50s of all Fab and obtain a dose-response curve. Several dilutions of the different Fabs were used in order to obtain the dose-response curve. In all sets of neutralization experiments several Fab dilutions were performed since only using a biological compound limit dilution was possible to obtain the exact amount of Fab able to inhibit viral infection.
(§8) Moreover, the same “dose-response” curve allowed the calculation of Fab IC50 which effectively depicts the in vitro Fab potency. The IC50 is the Fab concentration able to reduce by 50% the cell damage due to the infection of cell monolayer with a standard amount of virus (HSV-1 and HSV-2).
(§9) Quantitative Neutralizing Activity Evaluation Through Indirect Immunofluorescence (IIF) Assay Protocol: […]
(§10) Neutralization activity was then assessed by counting the immunofluorescence infection foci through InCellAnalyzer system.
(§11) The number of infection foci in the cell monolayer infected with viruses treated with the different Fab preparations was compared with the foci counted for the virus control (same virus amount)
(§12) The percentage of neutralization was then evaluated and a standard deviation from the mean was calculated as well (the experiment was performed in triplicate)

HSV-2 [4] = test: as above; format: cell-based, HSV-2 (MS strain); settings: IgG1 Fab; Vero E6 cells
Method: as §7, §8, §9, §10, §11, §12

HSV-1 [5] = test: Plaque reduction assay; format: cell-based, HSV-1 (HF strain); settings: 1 μg/mL
Method: (§13) Dose-response quantitative assay: the capability of Fab Ex2 to inhibit HSV infection was assessed by evaluating the presence of lysis plaques on cell monolayer due to HSV infection in the presence or in the absence of Fab Ex2. To confirm the IIF neutralization data, a plaque reduction assay was performed as quantitative evaluation.
(§14) Quantitative Neutralizing Activity Evaluation Through Plaque Reduction Assay Protocol:
(§15) 7×10^5 Vero cells/well were seeded in a 6-wells plate and grown in the appropriate complete medium supplemented with 10% FCS. Experiment was performed with cells at 100% confluence.
(§16) HSV-1 and HSV-2 viral stocks dilution (−5 and −4 respectively) were pre-incubated with purified Fab of interest at different concentrations (5, 2.5 and 1 μg/mL) in a final volume of 800 μL of complete DMEM, for 1 h at 37° C. and 5% CO2.
(§17) Experimental controls were added as well.
(§18) After washing the cells with a PBS 1× solution, viral solutions were added to the monolayers and incubated for 2 h at 37° C. and 5% CO2 for adsorption. […]
(§19) Neutralization activity was then assessed by counting the plaque forming units (PFU). In particular, the number of PFU in the cell monolayer infected with Fab-treated viruses was compared with the PFU counted for the virus control (same virus amount).

HSV-2 [6] = test: Plaque reduction assay; format: cell-based, HSV-2 (MS strain); settings: due to very high potency
Method: as §13, §14, §15, §16, §17, §18, §19

HSV-1 [7] = test: Cell-to-cell infection inhibition (plaque areas, post-adsorption); format: cell-based; settings: Fabs 50 ug/mL, IgGs 25 ug/mL
Method: (§20) Post post-adsorption assays have been performed in order to evaluate the contribution of IgGA in inhibiting “cell-to-cell” infection by measuring the plaque areas resulting from infected cells treated or untreated with FabA or IgGA.
(§21) Fabs tested in post-adsorption cell-to-cell infection inhibition assays have also been preliminary used at a concentration of 50 and 200 ug/mL against HSV-1 and HSV-2 tested isolates respectively*.
(§22) IgGs tested in post-adsorption “cell-to-cell” infection inhibition assays have also been preliminary used at a concentration of 25 and 100 ug/mL against HSV-1 and HSV-2 tested isolates respectively*.

HSV-2 [8] = test: as above; format: cell-based; settings: Fabs 200 ug/mL, IgGs 100 ug/mL
Method: as §20, §21, §22

B1: Ex2: human monoclonal Fab, VH SEQ ID NO.1 and VL SEQ ID NO.2, IgG2 Fab converted to IgG1 (antibody, listed as Homo sapiens, V domains shown)
VH: LESGGGVVQPGRSLRLSCAASGFTFTTFAMHWVRQAPGKGLEWLAFISYDGSNKYYADSVKGRFTISRDNSKNTLYLQMNSLRAEDTSIYYCAREVWNYADYWGQGALVTVSS
VL: ELTQSPGTLSSSPGHRATLSCKASAPLGSNHMAWYQQKPGQAPRLLIYGASTRATGVPARFTGSGSGTDFTLTISSLQPEDFATYYCQQANSFPRTFGQGTKVEIK
modifications: IgG1 constant regions
- inhibition of cellular disruption and syncytia formation, HSV-1 (HSV-1 [1]; 10 μg/ml, 5 μg/ml and 2.5 μg/ml, dose-dependent): strongly inhibit
- neutralizing potency of IgG1 format compared to IgG2 format, HSV-1 (HSV-1 [1]; IgG1 converted Fabs): increased potency
- inhibition of HSV-2 infection (syncytia formation assay) (HSV-2 [2]; 10 μg/ml, 5 μg/ml and 2.5 μg/ml, very low concentrations): completely inhibit
- neutralizing potency of IgG1 format compared to IgG2 format, HSV-2 (HSV-2 [2]; IgG1 converted Fabs): increased potency
- HSV-1 (IC50 μg/mL ± CI 95%) (HSV-1 [3]): 0.7 (0.44 ± 1.21) μg/mL
- HSV-2 (IC50 μg/mL ± CI 95%) (HSV-2 [4]): 0.2 (0.19 ± 0.23) μg/mL
- HSV-1 plaque formation measured as PFU (HSV-1 [5]): inhibited
- dose-response effect in HSV-2 plaque neutralization assay (HSV-2 [6]): a dose-response effect could not be measured
- inhibition of plaque areas (cell-to-cell infection), HSV-1 (HSV-1 [7]): inhibits
- inhibition of plaque areas (cell-to-cell infection), HSV-2 (HSV-2 [8]): inhibits
